Assay results: doi:10.1101/2023.01.25.525455

What was measured:
[1] = target: GFP-tagged VPS35L(I761G) (human) (UniProt Q7Z3J2); assay: co-IP
[2] = target: GFP-tagged VPS35L with complete deletion of the β-hairpin (human) (UniProt Q7Z3J2); assay: co-IP
Chain of GFP-tagged VPS35L with complete deletion of the β-hairpin (human) (Q7Z3J2 whole entry, stated change not applied): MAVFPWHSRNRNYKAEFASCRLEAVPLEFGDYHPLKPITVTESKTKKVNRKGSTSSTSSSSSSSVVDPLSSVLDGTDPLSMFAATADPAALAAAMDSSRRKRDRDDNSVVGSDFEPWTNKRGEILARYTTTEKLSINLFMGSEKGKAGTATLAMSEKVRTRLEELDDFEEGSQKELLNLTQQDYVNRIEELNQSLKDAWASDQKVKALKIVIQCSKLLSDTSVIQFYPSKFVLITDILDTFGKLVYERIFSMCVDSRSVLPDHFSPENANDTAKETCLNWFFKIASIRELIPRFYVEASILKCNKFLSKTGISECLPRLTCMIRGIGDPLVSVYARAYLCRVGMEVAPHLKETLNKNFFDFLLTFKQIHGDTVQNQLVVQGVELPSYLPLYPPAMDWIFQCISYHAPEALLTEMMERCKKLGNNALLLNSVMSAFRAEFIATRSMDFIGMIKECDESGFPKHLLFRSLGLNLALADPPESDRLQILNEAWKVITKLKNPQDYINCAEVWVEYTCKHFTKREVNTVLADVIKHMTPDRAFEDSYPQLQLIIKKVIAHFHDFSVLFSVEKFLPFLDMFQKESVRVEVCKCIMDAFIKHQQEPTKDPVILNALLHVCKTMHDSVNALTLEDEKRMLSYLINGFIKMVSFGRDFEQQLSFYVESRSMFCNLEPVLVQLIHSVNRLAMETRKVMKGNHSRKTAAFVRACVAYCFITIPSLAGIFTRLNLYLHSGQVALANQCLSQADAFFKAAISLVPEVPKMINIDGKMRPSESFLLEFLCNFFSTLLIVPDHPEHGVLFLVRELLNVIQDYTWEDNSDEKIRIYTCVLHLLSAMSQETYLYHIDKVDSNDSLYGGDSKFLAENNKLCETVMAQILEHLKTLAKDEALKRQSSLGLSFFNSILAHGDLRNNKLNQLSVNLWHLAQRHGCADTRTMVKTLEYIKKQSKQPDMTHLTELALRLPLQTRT

Chain of GFP-tagged VPS35L(I761G) (human) (Q7Z3J2 whole entry I761G): as the sequence (Q7Z3J2 whole entry, stated change not applied) above, with I761G counted along it

Substance: VPS29 (endogenous, HEK293T) (from UniProt Q9UBQ0 1-182) (natural protein)
- percent reduction in binding (against wild type) [1]: > 50%
- percent reduction in binding (against wild type) [2]: > 50%
